Experimental findings from the Human Domainome abundance scans (Beltran et al. 2025) are described below.

± gives the uncertainty stated by the source.

To fix the notation:
B1: Membrane-associated guanylate kinase, WW and PDZ domain-containing protein 2, residues 296 to 340; numbered along this chain, Q86UL8 (parent)
chain: EDNEEPDPLPDNWEMAYTEKGEVYFIDHNTKTTSWLDPRLAKKAK

The series covers variants of B1. The series is described as follows: abundance fitness (aPCA) (normalised: wild type 0, dead -1); higher = more abundant; growth selection in yeast, the domain comes from the species named. The following applies: Homo sapiens.
Regarding N3V, the abundance fitness is -0.042 ± 0.052.

For the variant N3F, the abundance fitness was -0.029 ± 0.41.

Take N3R: the abundance fitness was 0.157 ± 0.053.

Take N3C: the abundance fitness was -0.031 ± 0.2.

N3D: the abundance fitness was -0.258 ± 0.061.

As to N3Y, the abundance fitness was determined as 0.037 ± 0.08.

N3G: the abundance fitness is -0.081 ± 0.059.

For the variant N3H, the abundance fitness was determined as 0.058 ± 0.097.

N3A: the abundance fitness is -0.099 ± 0.059.

Turning to N3E, the abundance fitness is -0.173 ± 0.048.

With N3Q, the abundance fitness was 0.055 ± 0.06.

Consider N3L, for which the abundance fitness was 0.009 ± 0.045.

With N3S, the abundance fitness was determined as 0.021 ± 0.049.

N3W: the abundance fitness was determined as 0.059 ± 0.055.

Take N3M: the abundance fitness was 0.083 ± 0.055.

On to N3P, for which the abundance fitness was -0.109 ± 0.092.

D7A: the abundance fitness came to 0.185 ± 0.077.

On to D7L, for which the abundance fitness is 0.04 ± 0.07.

Turning to D7Q, the abundance fitness worked out at 0.054 ± 0.12.

Regarding D7G, the abundance fitness came to 0.104 ± 0.046.

D7W: the abundance fitness amounted to 0.01 ± 0.057.

On to D7R, for which the abundance fitness stood at 0.044 ± 0.058.

In the case of D7V, the abundance fitness was 0.134 ± 0.06.

Turning to D7S, the abundance fitness is 0.04 ± 0.07.

With D7E, the abundance fitness was -0.008 ± 0.056.

For M15P, the abundance fitness is -0.308 ± 0.085.

Take M15C: the abundance fitness is -0.127 ± 0.095.

With M15L, the abundance fitness is -0.026 ± 0.06.

Turning to M15G, the abundance fitness is -0.459 ± 0.11.

For M15V, the abundance fitness was -0.121 ± 0.084.

Take M15H: the abundance fitness was -0.428 ± 0.15.

As for M15W, the abundance fitness is -0.198 ± 0.092.

In the case of M15R, the abundance fitness was -0.106 ± 0.076.

In the case of I26E, the abundance fitness was -0.585 ± 0.077.

On to I26A, for which the abundance fitness is -0.521 ± 0.073.

As to I26M, the abundance fitness stood at 0.023 ± 0.16.

In the case of I26D, the abundance fitness is -1.15 ± 0.16.

As to I26H, the abundance fitness is -0.618 ± 0.077.

For I26S, the abundance fitness is -0.677 ± 0.084.

Turning to I26W, the abundance fitness was -0.691 ± 0.1.

On to I26Q, for which the abundance fitness is -0.259 ± 0.11.

For I26V, the abundance fitness worked out at 0.01 ± 0.069.

Take I26T: the abundance fitness was -0.733 ± 0.35.

I26L: the abundance fitness is -0.089 ± 0.068.

In the case of I26C, the abundance fitness is -0.258 ± 0.093.

In the case of I26R, the abundance fitness was -0.379 ± 0.056.

Take I26F: the abundance fitness is -0.549 ± 0.17.

In the case of P6S, the abundance fitness was found to be 0.003 ± 0.049.

In the case of P6N, the abundance fitness was -0.025 ± 0.064.

Regarding P6W, the abundance fitness is 0.043 ± 0.046.

Consider P6C, for which the abundance fitness was -0.081 ± 0.04.

For P6H, the abundance fitness is 0.091 ± 0.068.

As for P6I, the abundance fitness was -0.088 ± 0.061.

As for P6A, the abundance fitness is -0.001 ± 0.041.

For the variant P6D, the abundance fitness is -0.266 ± 0.05.

In the case of P6V, the abundance fitness came to 0.034 ± 0.044.

In the case of P6Y, the abundance fitness is -0.017 ± 0.054.

Take P6E: the abundance fitness is -0.138 ± 0.061.

Consider P6R, for which the abundance fitness is 0.029 ± 0.041.

Turning to P6L, the abundance fitness was 0.014 ± 0.044.

Consider P6G, for which the abundance fitness is -0.004 ± 0.037.

For the variant P10Q, the abundance fitness is -0.469 ± 0.087.

With P10I, the abundance fitness is -0.637 ± 0.069.

Take P10M: the abundance fitness is -0.166 ± 0.32.

Regarding P10L, the abundance fitness was -0.449 ± 0.054.

With P10H, the abundance fitness was -0.614 ± 0.061.

In the case of P10E, the abundance fitness is -0.376 ± 0.051.

For the variant P10N, the abundance fitness is -0.465 ± 0.052.

With P10T, the abundance fitness was -0.468 ± 0.063.

On to P10G, for which the abundance fitness is -0.436 ± 0.041.

Turning to P10C, the abundance fitness is -0.654 ± 0.13.

For the variant P10A, the abundance fitness is -0.528 ± 0.055.

As for P10R, the abundance fitness is -0.532 ± 0.04.

With P10V, the abundance fitness is -0.54 ± 0.044.

For the variant P10W, the abundance fitness was -0.469 ± 0.046.

As for P10K, the abundance fitness was -0.498 ± 0.072.

For the variant P10D, the abundance fitness is -0.341 ± 0.045.

For P10Y, the abundance fitness was -0.508 ± 0.061.

Regarding P10F, the abundance fitness is -0.615 ± 0.091.

In the case of P10S, the abundance fitness was -0.47 ± 0.06.

As to E1G, the abundance fitness was found to be 0.009 ± 0.048.

With E1S, the abundance fitness is -0.154 ± 0.082.

In the case of E1L, the abundance fitness is -0.023 ± 0.077.

As to E1I, the abundance fitness is -1.23 ± 0.15.

E1V: the abundance fitness is 0.035 ± 0.046.

In the case of E1Y, the abundance fitness worked out at 0.094 ± 0.12.

For the variant E1M, the abundance fitness is -0.067 ± 0.07.

Take E1K: the abundance fitness was 0.058 ± 0.079.

Regarding E1R, the abundance fitness was determined as 0.128 ± 0.063.

Consider E1P, for which the abundance fitness turned out to be 0 ± 0.11.

E1H: the abundance fitness was -0.109 ± 0.31.

Regarding E14W, the abundance fitness was -1.04 ± 0.14.

For the variant E14T, the abundance fitness was -0.162 ± 0.084.

Consider E14V, for which the abundance fitness was -0.264 ± 0.048.

As for E14L, the abundance fitness is -0.561 ± 0.069.

Regarding E14F, the abundance fitness was -0.705 ± 0.1.

In the case of E14R, the abundance fitness is -0.415 ± 0.06.

For the variant E14N, the abundance fitness is -0.241 ± 0.057.

Take E14S: the abundance fitness was -0.083 ± 0.097.

In the case of E14A, the abundance fitness is -0.47 ± 0.18.

In the case of E14Q, the abundance fitness came out at 0.032 ± 0.12.

Consider E14D, for which the abundance fitness was -0.097 ± 0.23.

As for E22G, the abundance fitness is -0.359 ± 0.042.

On to E22R, for which the abundance fitness was -0.409 ± 0.048.

In the case of E22F, the abundance fitness was -0.645 ± 0.43.

Regarding E22N, the abundance fitness is -0.314 ± 0.08.

For E22K, the abundance fitness is -0.234 ± 0.065.

Turning to E22D, the abundance fitness is -0.091 ± 0.05.

Turning to E22S, the abundance fitness is -0.227 ± 0.046.

On to E22M, for which the abundance fitness is -0.314 ± 0.061.

Turning to E22A, the abundance fitness is -0.228 ± 0.052.

With E22V, the abundance fitness is -0.325 ± 0.048.

On to E22Y, for which the abundance fitness was -0.404 ± 0.067.

With E22I, the abundance fitness was -0.517 ± 0.12.

E22Q: the abundance fitness was -0.084 ± 0.065.

As for E22P, the abundance fitness is -0.825 ± 0.13.

As for E22W, the abundance fitness was -0.551 ± 0.051.

Consider E22C, for which the abundance fitness is -0.377 ± 0.095.

Regarding E22T, the abundance fitness is -0.295 ± 0.063.

With E22L, the abundance fitness is -0.321 ± 0.063.

For the variant D11E, the abundance fitness was determined as 0.033 ± 0.052.

For the variant D11T, the abundance fitness was determined as 0.042 ± 0.056.

For the variant D11A, the abundance fitness worked out at 0.007 ± 0.061.

For the variant D11S, the abundance fitness worked out at 0.421 ± 0.18.

As to D11V, the abundance fitness was -0.064 ± 0.051.

As for D11M, the abundance fitness is -0.015 ± 0.098.

D11H: the abundance fitness is -0.029 ± 0.062.

For the variant D11L, the abundance fitness is 0.073 ± 0.063.

For the variant D11R, the abundance fitness turned out to be 0.032 ± 0.043.

Consider D11K, for which the abundance fitness is -0.04 ± 0.06.

In the case of D11Q, the abundance fitness is 0.091 ± 0.15.

Regarding D11N, the abundance fitness was -0.011 ± 0.07.

Turning to D11G, the abundance fitness is -0.096 ± 0.043.

Take D11W: the abundance fitness was -0.074 ± 0.044.

D11P: the abundance fitness is -0.099 ± 0.11.

Take G21R: the abundance fitness was -0.174 ± 0.049.

With G21E, the abundance fitness was -0.14 ± 0.054.

With G21I, the abundance fitness is -0.865 ± 0.25.

In the case of G21Q, the abundance fitness was -0.047 ± 0.055.

With G21Y, the abundance fitness is -0.337 ± 0.13.

For the variant G21K, the abundance fitness is -0.163 ± 0.084.

With G21C, the abundance fitness is -0.26 ± 0.07.

On to G21V, for which the abundance fitness was -0.975 ± 0.072.

Consider G21H, for which the abundance fitness was -0.081 ± 0.14.

For the variant G21D, the abundance fitness is -0.169 ± 0.076.

Consider G21L, for which the abundance fitness was -0.329 ± 0.084.

On to G21S, for which the abundance fitness was -0.208 ± 0.069.

As to G21P, the abundance fitness is -0.709 ± 0.16.

For the variant G21W, the abundance fitness was -0.593 ± 0.091.

As to G21M, the abundance fitness is -0.152 ± 0.079.

In the case of G21F, the abundance fitness was -0.33 ± 0.086.

Turning to D27V, the abundance fitness is -1.39 ± 0.1.

For D27M, the abundance fitness is -1.03 ± 0.091.

Consider D27Y, for which the abundance fitness was -0.217 ± 0.38.

For the variant D27C, the abundance fitness is -0.544 ± 0.13.

Turning to D27R, the abundance fitness was -0.667 ± 0.1.

On to D27P, for which the abundance fitness was -1.09 ± 0.22.

Take D27L: the abundance fitness was -1.3 ± 0.091.

For the variant D27I, the abundance fitness was -1.58 ± 0.32.

In the case of D27E, the abundance fitness was -0.487 ± 0.072.

For D27N, the abundance fitness is -0.151 ± 0.082.

D27G: the abundance fitness was -0.937 ± 0.074.

In the case of D27A, the abundance fitness is -0.786 ± 0.12.

Consider D2V, for which the abundance fitness was 0.074 ± 0.05.

Regarding D2Y, the abundance fitness turned out to be 0.063 ± 0.4.

As to D2C, the abundance fitness came to 0.256 ± 0.12.

D2K: the abundance fitness turned out to be 0.116 ± 0.066.
